This assay concerns the target human VEGF165 (human) (UniProt P15692). The assay is described as follows: population PK model estimate, Michaelis-Menten binding of free aflibercept to VEGF in plasma (in vivo, model-derived).

This passage reports KM (concentration of free aflibercept and VMK24 (maximum binding rate of free aflibercept to VEGF) results from EP4799607A2.

UniProt P15692, sequence (P15692 other isoform, or with tags, fused parts or gaps limits assumed): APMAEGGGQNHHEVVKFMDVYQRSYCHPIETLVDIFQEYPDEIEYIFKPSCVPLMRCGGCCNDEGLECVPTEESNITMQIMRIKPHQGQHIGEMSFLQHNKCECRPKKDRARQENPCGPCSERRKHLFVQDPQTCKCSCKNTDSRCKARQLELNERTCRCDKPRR
aflibercept, sequence (chain): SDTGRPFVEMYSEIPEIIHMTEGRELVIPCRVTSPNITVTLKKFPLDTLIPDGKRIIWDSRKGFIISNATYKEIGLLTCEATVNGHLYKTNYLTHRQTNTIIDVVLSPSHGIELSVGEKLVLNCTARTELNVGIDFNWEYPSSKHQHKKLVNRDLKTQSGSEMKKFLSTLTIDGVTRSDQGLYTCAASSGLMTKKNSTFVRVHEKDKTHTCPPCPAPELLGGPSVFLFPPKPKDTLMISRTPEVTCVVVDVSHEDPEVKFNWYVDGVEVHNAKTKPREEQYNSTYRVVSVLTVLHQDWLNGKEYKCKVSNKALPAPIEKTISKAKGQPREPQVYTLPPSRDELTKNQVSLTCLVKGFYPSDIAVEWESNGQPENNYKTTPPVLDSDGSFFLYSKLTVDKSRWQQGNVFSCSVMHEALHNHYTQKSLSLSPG

With aflibercept (Fc fusion), the KM (concentration of free aflibercept at half of maximum binding capacity with VEGF) is 0.411 mg/L and the VMK24 (maximum binding rate of free aflibercept to VEGF) was 0.167 mg/day/L.
